# Data: IntAct's records for PubMed 17986188
# B1: Cell division protein FtsA (Escherichia coli (strain K12)), P0ABH0 (parent)
# chain: MIKATDRKLVVGLEIGTAKVAALVGEVLPDGMVNIIGVGSCPSRGMDKGGVNDLESVVKCVQRAIDQAELMADCQISSVYLALSGKHISCQNEIGMVPISEEEVTQEDVENVVHTAKSVRVRDEHRVLHVIPQEYAIDYQEGIKNPVGLSGVRMQAKVHLITCHNDMAKNIVKAVERCGLKVDQLIFAGLASSYSVLTEDERELGVCVVDIGGGTMDIAVYTGGALRHTKVIPYAGNVVTSDIAYAFGTPPSDAEAIKVRHGCALGSIVGKDESVEVPSVGGRPPRSLQRQTLAEVIEPRYTELLNLVNEEILQLQEKLRQQGVKHHLAAGIVLTGGAAQIEGLAACAQRVFHTQVRIGAPLNITGLTDYAQEPYYSTAVGLLHYGKESHLNGEAEVEKRVTASVGSWIKRLNSWLRKEF
# B2: Cell division protein FtsA (Escherichia coli (strain K12)), P0ABH0 (parent)
# chain: B1 chain
# partner: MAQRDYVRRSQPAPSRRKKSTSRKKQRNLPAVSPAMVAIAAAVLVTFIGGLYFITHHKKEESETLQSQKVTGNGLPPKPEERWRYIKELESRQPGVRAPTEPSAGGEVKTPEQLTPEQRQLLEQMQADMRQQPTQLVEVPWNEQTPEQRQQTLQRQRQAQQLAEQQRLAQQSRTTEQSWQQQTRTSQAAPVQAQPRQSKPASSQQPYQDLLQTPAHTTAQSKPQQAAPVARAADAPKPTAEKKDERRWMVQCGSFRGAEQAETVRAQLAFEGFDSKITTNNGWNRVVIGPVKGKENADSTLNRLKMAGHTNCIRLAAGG
# Variants of: B1
# Settings: with ftsz_ecoli ftsZ
row,effect of a mutation on the interaction,Variant
1,decreasing interaction strength,MIKATDRKLVVGLEIGTAKVAALVGEVLPDGMVNIIGVGSCPSRGMDKGGVNDLESVVKCVQRAIDQAPLMADCQISSVYLALSGKHISCQNEIGMVPISEEEVTQEDVENVVHTAKSVRVRDEHRVLHVIPQEYAIDYQEGIKNPVGLSGVRMQAKVHLITCHNDMAKNIVKAVERCGLKVDQLIFAGLASSYSVLTEDERELGVCVVDIGGGTMDIAVYTGGALRHTKVIPYAGNVVTSDIAYAFGTPPSDAEAIKVRHGCALGSIVGKDESVEVPSVGGRPPRSLQRQTLAEVIEPRYTELLNLVNEEILQLQEKLRQQGVKHHLAAGIVLTGGAAQIEGLAACAQRVFHTQVRIGAPLNITGLTDYAQEPYYSTAVGLLHYGKESHLNGEAEVEKRVTASVGSWIKRLNSWLRKEF [E69P]
2,increasing interaction strength,R286W

# Variants of: B2
# Settings: with ftsn_ecoli ftsN
row,effect of a mutation on the interaction,Variant
1,decreasing interaction strength,MIKATDRKLVVGLEIGTAKVAALVGEVLPDGMVNIIGVGSCPSRGMDKGGVNDLESVVKCVQRAIDQAPLMADCQISSVYLALSGKHISCQNEIGMVPISEEEVTQEDVENVVHTAKSVRVRDEHRVLHVIPQEYAIDYQEGIKNPVGLSGVRMQAKVHLITCHNDMAKNIVKAVERCGLKVDQLIFAGLASSYSVLTEDERELGVCVVDIGGGTMDIAVYTGGALRHTKVIPYAGNVVTSDIAYAFGTPPSDAEAIKVRHGCALGSIVGKDESVEVPSVGGRPPRSLQRQTLAEVIEPRYTELLNLVNEEILQLQEKLRQQGVKHHLAAGIVLTGGAAQIEGLAACAQRVFHTQVRIGAPLNITGLTDYAQEPYYSTAVGLLHYGKESHLNGEAEVEKRVTASVGSWIKRLNSWLRKEF [E69P]
2,decreasing interaction strength,MIKATDRKLVVGLEIGTAKVAALVGEVLPDGMVNIIGVGSCPSRGMDKGGVNDLESVVKCVQRAIDQAELAADCQISSVYLALSGKHISCQNEIGMVPISEEEVTQEDVENVVHTAKSVRVRDEHRVLHVIPQEYAIDYQEGIKNPVGLSGVRMQAKVHLITCHNDMAKNIVKAVERCGLKVDQLIFAGLASSYSVLTEDERELGVCVVDIGGGTMDIAVYTGGALRHTKVIPYAGNVVTSDIAYAFGTPPSDAEAIKVRHGCALGSIVGKDESVEVPSVGGRPPRSLQRQTLAEVIEPRYTELLNLVNEEILQLQEKLRQQGVKHHLAAGIVLTGGAAQIEGLAACAQRVFHTQVRIGAPLNITGLTDYAQEPYYSTAVGLLHYGKESHLNGEAEVEKRVTASVGSWIKRLNSWLRKEF [M71A]
